“And” between values parts separate entries of the source, which are not always exact repeats. Equal entries are not always repeated.
Molecular target: GLP-1 receptor
Assay: cell-based or functional assay

| In Vitro Activity (% of Val^8-GLP-1) (% of Val^8-GLP-1) | GLP-1 Receptor Activation (fold of GLP-1(7-37)OH) | Substance |
| --- | --- | --- |
| 3.3 | – | Gly^8-GLP-1-IgG1 (from UniProt P01857 99-330) (Fc fusion) |
| – | 2.3 and 2.73 and 3.15 | Val^8-Glu^22-Val^25-Ile^33-GLP-1(7-37)OH (peptide) |

Second part, the substance before the results:

| Substance | In Vitro Activity (% of Val^8-GLP-1) (% of Val^8-GLP-1) | GLP-1 Receptor Activation (fold of GLP-1(7-37)OH) |
| --- | --- | --- |
| Val^8-Lys^33-Asn^34-GLP-1(7-37)OH (peptide) | – | 0.09 |
| Val^8-Trp^16-Glu^22-Ile^33-GLP-1(7-37)OH (peptide) | – | 1.93 |
| Val^8-Trp^16-Glu^22-Val^25-GLP-1(7-37)OH (peptide) | – | 2.07 |

— patent US20040053370A1
